In the Human Domainome abundance scans (Beltran et al. 2025):

B1: Ankyrin-3, residues 4094 to 4171; numbered along this chain, Q12955 (parent)
chain: MAIVADHLGLSWTELARELNFSVDEINQIRVENPNSLISQSFMLLKKWVTRDGKNATTDALTSVLTKINRIDIVTLLE

Variants of: B1
Assay: abundance fitness (aPCA) (normalised: wild type 0, dead -1); higher = more abundant; growth selection in yeast, the domain comes from the species named
Settings: Homo sapiens

Abundance fitness of substitutions, site by site:
E25: P -0.957; G -0.826; Y -0.792; H -0.859; F -0.771; A -0.457; K -0.808; T -0.334; V -0.344; I -0.754; L -0.862; N -0.63; R -0.947; M -0.739; W -0.887; Q -0.251; D 0.03
D24: N -0.197; V -0.341; M -0.424; Q 0.063; E 0.053; K -0.195; T -0.152; L -0.272; W -0.435; S -0.199; C -0.342; P -0.352; F -0.621; Y -0.228; I -0.4; H -0.068
N20: H -0.035; P -1; D 0.093; E -0.101; Y -0.348; L -0.191; V -0.608; F -0.196; R -0.18; A -0.162; M -0.113; I -0.609; W -0.902; K -0.169; C -0.348; G -0.081; Q -0.329
L8: Q -0.755; Y -0.63; C -0.787; P -1; A -1.07; R -0.829; V -0.769; E -0.984; M -0.574; K -0.696; S -0.916; W -0.552; F -0.463; G -0.983
H7: W -0.802; R -0.05; G -0.705; D -0.796; K -0.016; S -0.358; N -0.292; F -0.521; I -0.642; L -0.366; V -0.202; Q -0.043; M -0.12; T -0.175; P -0.881; E 0.011; A -0.11; C -0.637; Y -0.444
L15: P -0.741; I -0.387; R -0.869; E -0.766; S -0.772; V -0.039; G -0.93; T -0.891; M -0.073; F -0.149; Q -0.75; C -0.433
V23: H 0.02; D -0.335; S -0.061; G -0.004; E -0.04; I -0.073; A -0.12; C -0.22; L -0.048; W -0.049; N 0.097; R -0.027; F -0.142; P -0.034; Y -0.534; T -0.023; Q 0.16; K -0.142
S11: T -0.314; L -0.963; D 0.092; K -0.761; F -0.654; A -0.31; I -0.422; G -0.261; N 0.009; W -1.05; M -0.94; C -0.342; V -0.84; R -0.965; E -0.326; Q -0.053; P -1.03
L10: A -0.064; C -0.016; H 0.124; Q 0.04; Y -0.104; E 0.05; M -0.114; W -0.101; P -0.04; R -0.022; T -0.046; S 0.081; D -0.011; G -0.043; I -0.096; V 0.029; N -0.133; F 0.032
I26: Q -0.594; R -0.522; K -0.953; S -0.805; L -0.96; E -0.848; C -0.561; M -0.544; D -0.886; T -0.755; V -0.076; W -0.871; P -0.894
F21: V -0.81; S -0.893; P -0.708; W -0.978; H -0.842; I -0.665
